The values below come from publication PMC6984350 (Structure (London, England : 1993), 2018).

T1: Filamin A domains 4-6, wild type (human, UniProt P21333 571-861)
T1 sequence (looked up): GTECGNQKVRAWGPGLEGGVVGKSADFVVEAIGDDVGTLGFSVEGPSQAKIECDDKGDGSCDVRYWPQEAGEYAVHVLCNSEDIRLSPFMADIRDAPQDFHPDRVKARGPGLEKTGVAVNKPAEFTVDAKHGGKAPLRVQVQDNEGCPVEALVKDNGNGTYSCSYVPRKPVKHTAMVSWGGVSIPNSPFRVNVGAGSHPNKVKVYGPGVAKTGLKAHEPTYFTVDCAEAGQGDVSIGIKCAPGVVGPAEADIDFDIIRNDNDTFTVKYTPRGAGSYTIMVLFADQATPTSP

B1: PTPN12 634–709 (domain or fragment, UniProt Q05209 634-709, looked up)
chain: ATSTESISTRKVLPMSIARHNIAGTTHSGAEKDVDVSEDSPPPLPERTPESFVLASEHNTPVRSEWSELQSQERSE
B2: PTPN12 600–673 (domain or fragment, UniProt Q05209 600-673, looked up)
chain: PLHSDDSDSDERNSDGAVTQNKTNISTASATVSAATSTESISTRKVLPMSIARHNIAGTTHSGAEKDVDVSEDS
B3: PTPN12 C-terminal domain (600–780) (domain or fragment, UniProt Q05209 600-780, looked up)
chain: PLHSDDSDSDERNSDGAVTQNKTNISTASATVSAATSTESISTRKVLPMSIARHNIAGTTHSGAEKDVDVSEDSPPPLPERTPESFVLASEHNTPVRSEWSELQSQERSEQKKSEGLITSENEKCDHPAGGIHYEMCIECPPTFSDKREQISENPTEATDIGFGNRCGKPKGPRDPPSEWT
B4: PTPN12–600-709 (domain or fragment, UniProt Q05209 600-709, looked up)
chain: PLHSDDSDSDERNSDGAVTQNKTNISTASATVSAATSTESISTRKVLPMSIARHNIAGTTHSGAEKDVDVSEDSPPPLPERTPESFVLASEHNTPVRSEWSELQSQERSE

The assay concerns the target T1, Filamin A domains 4-6, wild type. In words: SPR. A general note: In SPR one partner is held on a chip, and binding of the other changes the refractive index at the surface.
One may read the Kd as the constant that tells how readily two partners part at equilibrium. A high value points to weaker binding. In turn, B1 showed a dissociation constant (Kd) of 0.27 µM.
The molecule B2 yielded a Kd greater than 10000 µM.
PLHSDDSDSDERNSDGAVTQNKTNISTASATVSAA (domain or fragment, UniProt Q05209 600-634, looked up) [PTPN12–600-634] had a Kd greater than 10000 µM.
For B3, the Kd was roughly 0.33 µM.
In the case of B4 it was 0.32 µM.
